{"source": "paper PMC6127865", "binders": {"B1": {"name": "TP5921/TP5922 CDX2 consensus site duplex (dsDNA)", "DNA 1": "TAATCTCTCTGTTTATAGCTCTGACCT", "DNA 2": "AGGTCAGAGCTATAAACAGAGAGATTA"}}, "molecular_target": "T1, HisMBP-CDX2ΔCTD R214N (UniProt Q99626 1-245, R214N)", "T1 sequence": "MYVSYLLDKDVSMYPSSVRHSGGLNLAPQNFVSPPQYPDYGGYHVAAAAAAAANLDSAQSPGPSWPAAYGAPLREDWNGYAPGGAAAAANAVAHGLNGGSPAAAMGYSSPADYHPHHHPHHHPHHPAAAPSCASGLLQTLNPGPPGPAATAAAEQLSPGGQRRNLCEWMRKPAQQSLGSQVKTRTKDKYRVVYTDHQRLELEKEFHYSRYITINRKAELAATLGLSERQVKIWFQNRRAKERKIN", "assay": "EMSA"}
{"binder": "B1", "values": [{"measurement": "binding result", "result": "no binding"}]}
